Source: IntAct's records for PubMed 22081014

B1: SH2 domain-containing protein 3C (Homo sapiens), Q8N5H7-2 (parent)
chain: MTAVGRRCPALGSRGAAGEPEAGSDYVKFSKEKYILDSSPEKLHKELEEELKLSSTDLRSHAWYHGRIPREVSETLVQRNGDFLIRDSLTSLGDYVLTCRWRNQALHFKINKVVVKAGESYTHIQYLFEQESFDHVPALVRYHVGSRKAVSEQSGAIIYCPVNRTFPLRYLEASYGLGQGSSKPASPVSPSGPKGSHMKRRSVTMTDGLTADKVTRSDGCPTSTSLPRPRDSIRSCALSMDQIPDLHSPMSPISESPSSPAYSTVTRVHAAPAAPSATALPASPVARRSSEPQLCPGSAPKTHGESDKGPHTSPSHTLGKASPSPSLSSYSDPDSGHYCQLQPPVRGSREWAATETSSQQARSYGERLKELSENGAPEGDWGKTFTVPIVEVTSSFNPATFQSLLIPRDNRPLEVGLLRKVKELLAEVDARTLARHVTKVDCLVARILGVTKEMQTLMGVRWGMELLTLPHGRQLRLDLLERFHTMSIMLAVDILGCTGSAEERAALLHKTIQLAAELRGTMGNMFSFAAVMGALDMAQISRLEQTWVTLRQRHTEGAILYEKKLKPFLKSLNEGKEGPPLSNTTFPHVLPLITLLECDSAPPEGPEPWGSTEHGVEVVLAHLEAARTVAHHGGLYHTNAEVKLQGFQARPELLEVFSTEFQMRLLWGSQGASSSQARRYEKFDKVLTALSHKLEPAVRSSEL
partner: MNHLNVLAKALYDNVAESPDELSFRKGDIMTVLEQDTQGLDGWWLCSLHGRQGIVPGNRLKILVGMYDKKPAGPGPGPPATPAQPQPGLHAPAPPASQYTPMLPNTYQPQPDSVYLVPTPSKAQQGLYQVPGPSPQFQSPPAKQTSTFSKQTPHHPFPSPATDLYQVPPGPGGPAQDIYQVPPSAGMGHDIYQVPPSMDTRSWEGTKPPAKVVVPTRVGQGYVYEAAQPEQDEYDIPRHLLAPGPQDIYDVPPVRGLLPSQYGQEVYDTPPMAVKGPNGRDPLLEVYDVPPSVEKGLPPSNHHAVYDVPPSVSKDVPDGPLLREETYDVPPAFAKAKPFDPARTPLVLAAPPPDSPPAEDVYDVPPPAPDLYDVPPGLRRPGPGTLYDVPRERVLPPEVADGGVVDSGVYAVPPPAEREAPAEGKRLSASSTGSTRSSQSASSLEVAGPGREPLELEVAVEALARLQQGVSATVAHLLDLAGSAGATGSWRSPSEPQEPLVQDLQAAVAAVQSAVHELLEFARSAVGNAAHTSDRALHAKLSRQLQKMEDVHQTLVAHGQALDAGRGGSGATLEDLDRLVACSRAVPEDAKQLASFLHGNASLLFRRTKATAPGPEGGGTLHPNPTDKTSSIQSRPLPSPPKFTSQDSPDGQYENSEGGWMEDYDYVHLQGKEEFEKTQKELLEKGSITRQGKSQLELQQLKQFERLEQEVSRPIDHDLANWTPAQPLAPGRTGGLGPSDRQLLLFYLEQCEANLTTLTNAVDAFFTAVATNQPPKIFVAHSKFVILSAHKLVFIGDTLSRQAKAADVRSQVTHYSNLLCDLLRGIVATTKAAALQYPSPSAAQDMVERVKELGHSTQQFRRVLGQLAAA
B2: Breast cancer anti-estrogen resistance protein 1 (Homo sapiens), P56945 (parent)
chain: B1 partner
partner: B1 chain
B3: Breast cancer anti-estrogen resistance protein 3 (Homo sapiens), O75815-1 (parent)
chain: MAAGKFASLPRNMPVNHQFPLASSMDLLSSRSPLAEHRPDAYQDVSIHGTLPRKKKGPPPIRSCDDFSHMGTLPHSKSPRQNSPVTQDGIQESPWQDRHGETFTFRDPHLLDPTVEYVKFSKERHIMDRTPEKLKKELEEELLLSSEDLRSHAWYHGRIPRQVSENLVQRDGDFLVRDSLSSPGNFVLTCQWKNLAQHFKINRTVLRLSEAYSRVQYQFEMESFDSIPGLVRCYVGNRRPISQQSGAIIFQPINRTVPLRCLEEHYGTSPGQAREGSLTKGRPDVAKRLSLTMGGVQAREQNLPRGNLLRNKEKSGSQPACLDHMQDRRALSLKAHQSESYLPIGCKLPPQSSGVDTSPCPNSPVFRTGSEPALSPAVVRRVSSDARAGEALRGSDSQLCPKPPPKPCKVPFLKVPSSPSAWLNSEANYCELNPAFATGCGRGAKLPSCAQGSHTELLTAKQNEAPGPRNSGVNYLILDDDDRERPWEPAAAQMEKGQWDKGEFVTPLLETVSSFRPNEFESKFLPPENKPLETAMLKRAKELFTNNDPKVIAQHVLSMDCRVARILGVSEEMRRNMGVSSGLELITLPHGHQLRLDIIERHNTMAIGIAVDILGCTGTLEDRAATLSKIIQVAVELKDSMGDLYSFSALMKALEMPQITRLEKTWTALRHQYTQTAILYEKQLKPFSKLLHEGRESTCVPPNNVSVPLLMPLVTLMERQAVTFEGTDMWEKNDQSCEIMLNHLATARFMAEAADSYRMNAERILAGFQPDEEMNEICKTEFQMRLLWGSKGAQVNQTERYEKFNQILTALSRKLEPPPVKQAEL
partner: B1 partner

Variants of: B1
Conditions: with bcar1_human BCAR1, P56945

Variant	effect of a mutation on the interaction
R627E	decreasing interaction
L623E	disrupting interaction
L469R	decreasing interaction

Variants of: B1
Conditions: with bcar1_human BCAR1, P56945
Remark: another data set of the same source

Variant	effect of a mutation on the interaction
L469R	disrupting interaction

Variants of: B2
Conditions: with SH2D3C

Variant	effect of a mutation on the interaction
D797R	decreasing interaction
L787E	decreasing interaction
L787E;F794R	disrupting interaction
F794E;D797R	disrupting interaction
F794R	decreasing interaction

Variants of: B2
Conditions: with SH2D3C
Remark: another data set of the same source

Variant	effect of a mutation on the interaction
L787E	disrupting interaction
F794R	disrupting interaction

Variants of: B3
Conditions: with bcar1_human BCAR1, P56945

Variant	effect of a mutation on the interaction
L744E	disrupting interaction
R748E	disrupting interaction
